Measurements reported in the NTF2 design screens of Basanta et al. (2020).

test: protease stability score; higher = more stable; yeast display proteolysis, trypsin and chymotrypsin;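 further: relative to predicted unfolded state with 0 unfolded-like and 1 meaning tenfold more protease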

Sequence | protease stability score
DEEEHRLRHFSELFTELFKTGDWKTFAKLMDPEVRTHSEWNGQEFSDHGMEAIVHFFKEFVDKFKNLTFHLTRIEVQGDKVHIDTILIFNGKTFTTRLEFIVVNGRIKEVRYHVK | 1.13
DEEEESNRHLAEKFEEHHRTGDWRMMSKMFDPHVRVERIFNGRTVIIHGWEKYVKTVKDEFERIKGARLIIDDMKVQGEKSRVEGTLKINGRTVEVDIHLDIVDGRLRHVRIEIE | 0.201
DEDHQMATIAFHLLIESLLTGDEHTIQEMFDPRVKVNINGVELIGWEALVEHLRRIDHHSIHQWTFRDVRFYDGVLNVLGEVDFEVVFDGRRVSHRVRFHLIIFKIDGKWMTRTVEVK | 2.23
SEDREEYHELLKRMIHALMTGDWRDFEKLFDPNARLEVNGQIFHGREDVVKWLRDVLKRYDHIEHFRIRTEEYQGDKIIMDGELHKVINGQHIVTRVRIEVWVVDGRLKRRSEREE | 1.51
DEDKESAERAFRILVHLWETGDEHKLERMHDPNTRYHQGDKDIHGMEKILERLSHIRIKDVKLRDIKYQGEKLEVDGEIEIEVDGRNLLLRTILFFDKVDGRWVIRSIEVR | 1.52
DEEEHALWHWFQEHVHALETGDEDTLRELADPNVRLDINGKRIHGRHQLEHLIHRIDHMRIDDYKIDHVDRQGEKVIIDGTFHGKIIQGDKTIHMHTRVIIILLKVDGQWRLKSEQID | 1.12
DESHQLMLELLEELFHLLLTGNEETILRLADPNTRLQINGQETHGRESARHYWQRFLEHWRLKDYRIRSLYSQGDKAIIHTEVVLHYNGRDFRVTTEIRLWVFDGKIHEIIIIIN | 1.53
DEEESIERELSRRWLHWFITGDEERAKKLADPRARYHQGDKEIHGWDNLRKFLFEILEKIPNLRIIIRDSDVINGRIHYDTELHIDGVHIKTHLIIVIVDGRLKELHVEEH | 0.06
DELHETVEHAMERMIESSKTGDWRSLTKLMDPNVRMHIDGVDLIGWEIAVRVILEIRIEHVHIHHIDVQGDKMEVDVSVRIHFNGKHEDRQIVLFAEKVDGRWINRSVEIR | 1
DEEEKRAREQYKLMFHNLQTGDEDTLKKLMDPNVRLDINGQEHHGRENVVKFWEHFIRKLGVKHMEWKDRDVEITENHVNFHGYIIIDIDGQERRLHTIIILRKVDGKWVVESLVFK | 2.23
TESEKSAHEFLELFEKSIVTGDEDNLDKMADPNVQTIINGREFHGREEMVKAFREIWNIMGVKHIEIRLKQIDFQGEKISVDSRLHIDVNGKRIDHSMTIIFRKINGRWVLESINRD | 1.34
SEHDKVLRELINLLWEALATGDFDQLHKLLDPHVKLDIGEWHSHGRESFIKNWLDDIRRVKNVRYELRHMDVINGQAHLDIHESYDGVRYDSELIIFIIDGKIHEITVHIR | 0.83
DEDEEMVEKALELMAETHETGDEDTLHDFFDPHTRMELQIGDKTIRDHGRHAMHWLLRILGINHIEIHHRTVRLINGRIHLHINGSINVNGQEIESRIHIYSEKIDGRWRVTRLEYRFH | 1.31
DEHEEHVHEITRLIIEAELTGDFERMKKMFDPNAKLILLINGREDTNHGMDFVRFWLKEHLERVDHRRVELKRWDVVNGVSHNDVTLHLEVGEWKITVKMHLHIVVVDGRLKSIKIEIR | 1.4
DEHEEALEEFLTEMIENIKTGDWHSELKLMDPHVRILFDGVIFHGREFFFQWLRHLLQRADHVNFTIDDKKYQGDKMVIETTFHLIINGQRIERYTVLLARKVNGRWYIEEVRLH | 2.33
DEEEKHLKKLKDMEWKLFETGNEDEIAKLADPNTRTEIDFNGVRIILHGRHVFAKYLTRWWRSLGIDHIRLEEMDIQGDYVTIRGKEDYNGKEKRVTIIIVIVDGRLKEIHVDVR | 0.967
SEEEEETRKFAHDLVNIHRTGDERKINDLFDPHVRVHIGNKEIVGRELFARWMHEFLLKHGFTEEIRIDDVDLYGNKAHIDGTLIIRINGVEHRHRVELIVNKINGKWLMEYVRVR | 1.6
SEHHKLLVEIAHLWIRNVLTGDEDRLKEMADPNVRIHINGVDIHGMEDFVRHVHERLKEIWIRIEIKRMVPYDGRAEVDGTMHVIVNGQKLSRRVHYDIIIVDGVLQEQHVHVE | 1.64
SEDEREFLDVLKWLIEAVATGDERIWKELVDPHVRLEVGDKHRHGRETFEKTMRHLRVKEVRVKLHDFDFIGEKMTADVKLEIHLIVGDKERDIRLDIIVHSRKIDGKWHVESIHIR | 1.51
SEEDEKKEEETRLMLEWWRTGDEHAIARNMDPDARLEVDGKERHGREEVLRFISEMLKRLGVDHVRITDWRIIGDFVEVDLSIEVGDKSRKFHLHFFIIDGRIKEIKIDER | 1.39
DEERHDAEEASREIMRSYETGDETEYLNLLDPHARMTVGDKEFHGREDILRWWHELNEKLGVDRIHLHLEHIRVINGVVESHVRLNVNGREHRVELLVYKVNGRWLIREMHFR | 1.68
DEDERHARKVLELWLQSLLTGDEELTDHLLDPRVKILVDGVELHGREHARMFHRHIHMRIDHMKDFHIHSFTSVGDKVHVDIRIHFRQGDKEYRLNQRTLILKVNGRWVIEKIEVD | 2.22
DHEEKKAKELLHLIVELLITGDEDTLSRLLDPNTRWIINGRHLHGMHVFEEWVRRLKEQYKGVTVHIEIEDSKVVGEKARSEIRLIINIGDKVHDIESRLEIVVIDGKMRSLRFEFK | 1.19
DELEEYLKRLAKEILELMQTGDEDRWMKLADPNVRIDVNGVELHGRETWVERMEDILREIRSEYRIRHVHSQGNWARVDGELDIKVNGRIIRHKTEFIVVTVNGRIREEKFHIR | 0.335
SEKDQALTEMLEIFLQVHRTGNEEDMHRLADPNARSVYNGQDLHGWEHVFNIMRRIDHIHHVTVKRVEYFDGRVSLDGHINIEIGDKSYHIDISISLRKVDGQWHIESIEFI | 0.721

Sequence | protease stability score
SHNDKLWHEDIELFIEAWETGDWKLLVEMLDPHTRIEIRQGDKTIVLHGREDASRDIIEYTEFFKNVTITKDDRHIQGDKTEMHITIIIGEFVLRTIIEFDMFNGQLKTYRRKVL | 1.18
TEEDELLDKLAEIFSKVLKTGDFDELLSLFDPHTRLEVRQGDKEFHYHGREEVVRFWRHVRNRIDHSQLELHDVKSVNGVANSDSEVILRVNGKEIRIHHILLFVVINGRSKMVVIEFR | 1.68
SKDEDDMRRWAEILIQDFITGDEDRMNHLLDPNTRVQVNGVQDHGMEALEKLFEILGFKHIDIKDLHIKLIGDKVEQDVVLRLNVNGKERKVKVHNFAEKVDGRWFVESITVHVR | 1.02
SEEDHFMKHLVDHWAKIEQTGDEHALHELLDPDARVSIKIGDKEHIVHGREYLIELWRQLGFKVIKIHDHTVFNGVVKLHGHWHFDGREVHVEQDLIIINGRVKTVLMRVK | 1.72
SEVHEQIEEIFREFMHMLLTGDWKRLTELADPHVRLEFDGREFHGREELVRRLLELGFKHQHLHDMRIHNFDGRVYMHTDTRVHVDGKHVIVRLELIVNKFNGQWYVHSLRIEVQ | 0.343
SEEERDVRHVFEVFERSMNTGDEKKIEDRLDPNVRIIIGDKRVHGMHWVSKVIVEMRTHFILRRIRIIGDKADIDGELELRAEGHHIHTHVIIVVHKINGRWYIEEIEIR | 1.69
SEDEEHSRIFVQLFQRAVETGDEDRMLQLMDPDARVHIGDKTYHGMFQFVRWLHDQLKRFKNIRIEWRLTEIDVFENHIIIKGELRLKAEGVDHIHNVIIYVNKINGRWIVHHMEIR | 1.52
SDEDRLNYEIAKYLLDSLRTGDWHTFRRMADPHVKIRTVINGQELRMHGMEDLMERWKLLGFDHTRVHVEHIEIQGDKAHVRGTVKININGQEHTYETDLDVQIVNGRVESINFNWL | 1.14
SEEDKATEKFLRELSEWHRTGDEEHFVRNLDPHVRVDIDGVELHGREEVERHLRKRWEKLGVDRFDSELRFKHIHVQGDKIEIHIRIILDINGVHRNVDVEIIALKVNGRWLIQSYHIR | 2.24
DDWHEILKHHFDNEVESILTGDEDSIKKMIDPHVRLEVNGREVHGMEEFARVMIEIRFRRIDLRERDIFNGVLHLRLEVDWEYGDKRFETEEEVVYFKVNGRWILESMRVR | 1.26
SEEEKRAEEWVKLMIHAHLTGDFHLLERFADPHTRVDFNGVENIGMEEVSRWIKEWRRRIDHTEIRLHRIRLQGDKVHVKTELILEYDGRTEFIDSRINLIVINGVLKELRVTLH | 1.38
DEDTRLAEDELQLWVEHVETGDEDTLFELLDPNVRLHIGDKELHGREAWVQWLVEARVEHVHIRDIKVVDGKVLITGRIIFRVGDKRVDTDHHMIIEKINGRWVLHEIHFH | 2.07
SEWEKQLRHMVHLVLLAVRTGNEHLLNELLDPDTRAVFNGVESVGREDMWRMLKHLRIERVRVHDERHDDQGNKARFILLGETQVNVNGKVLETHTEIEIILIKVDGQWTFETLTFRIT | 1.55
DEDEEDAQEILKRFVHANETGDWRILEELIDPNARYEQGDKHLVGREEVLRRMIELGIKHTYIHSFSVQGDKLRLDTSIQFENHRVKTHLILNKINGRWVIKSIHIH | 1.91
SEEHKRIEKLLRRLQDALKTGDERDIMNLLDPNVRIEINGKDLIGREVWAKIMHHLRVEDSEINIHHSRSQGNFLESDIETHRHIHVDGKDIDLTWEEHVVIIKVDGKWKIERVHIR | 1.17
SEEEEEAHRYQEEWKRVHRTGDEDRFRELMDPNVRIHLNINGKNIHLHGRQLAVDFLRHIHLHWRDHEIHTHDIRHFNGVTHVTGRLDGEVNGRRIDTHVEFHHHVFNGRIKSIIIIVH | 1.33
SELEELSKHHLELLTHSHRTGDEKSFVELLDPHARIHQGDFHFHGRKLIDEFFRQARIHHIHVDDSELQGNWVFVHGRVEGNFNGVRSKITTHIIELKVNGRWLLHNVHIA | 0.779
SEIREETQRVIEEFLRNHKTGDESLFHELADPNARLHFHQGDKRLDFIGREHVLEFWSRVSKELGVDHVELKDHKLQGDKMILHIESEVNGRRMIIIDISDKIDGRWVLHTLHIHVE | 0.466
DEHHKILTELMRDALRYEETGDWDETSKLLDPRTRLDFNGVEVIGREAYEHLLRFLGIKVFRETDMEVQGDKIKLNGRSNFNGRETEHYIYALKVDGRWILRSVEFK | 1.3
SEVEEEMKRRVELLIRLLLTGDEDTFDSNADPDTRVVIRQGDFRVENHGRELMLHHLRELGIKVTELHLREIRIQGDWAHVNIQEHIEVDGRLESRTIHLHFFLVDGKVKSWEIEVR | 1.27
SDEEHQWELAFRFWITILKTGDEDHFERLADPHYLLQIGDKHVVGREQIAREIEKYRRELGVDHSHFDVDHIQVVGDKVEIQGSLEIRVGDKSIHHTTRTIIRKVDGRWLLKKVHFG | 1.23
DEDKRHADRWVDELRRVMLTGDFDTYVEMLDPHVRIEVGDKVIHGREDLIKFMRERLDRLGYERVEIRIEVSDREKQGDKIELHGTLHLFIGDKEHTHKIRIWIRKVNGQWIAESERVQ | 1.71
HEEEQEIEKIVEDILRAWETGDWKTFYELADPHTKHTLIQGDKHIHRHGRDRMSDLLEELLKRFKGAIVDIKDIKWIDGQLNMTGELQIGDKKHKVHLHMNFIDGKIKRIEIRVD | 1.13
DEVHEEAERASEHFFESLLTGDEKSTESFIDPHAKMEFSFNGRNYDMIGRMWVEIEHRLLGIDHYIHKDNRTHSQGEKLLLIIHGRIRVGDKEFDVELHVIMMKIDGQWNVKRLEVRVK | 1.25
SEEEHRVKELSELMLHWFKTGDEETMDHLMDPDARFELQVGDKEVHSHGWESVHKVLRRTLFWLGADHYNDKDFKHQGDKSKIDMTVHVGDKTVEVTLHLKIVDGRLKFLEIRVK | 1.16
